Laboratory results from IntAct's records for PubMed 16595635.

Legend:
tnfl6_human FASLG [1] = biological target: tnfl6_human FASLG (UniProt P48023)
tnfl6_human FASLG [2] = biological target: tnfl6_human FASLG (UniProt P48023); remark: listed apart in the source
tnfl6_human FASLG [3] = biological target: tnfl6_human FASLG (UniProt P48023); remark: listed apart in the source

Chain of UniProt P48023 (P48023 whole entry): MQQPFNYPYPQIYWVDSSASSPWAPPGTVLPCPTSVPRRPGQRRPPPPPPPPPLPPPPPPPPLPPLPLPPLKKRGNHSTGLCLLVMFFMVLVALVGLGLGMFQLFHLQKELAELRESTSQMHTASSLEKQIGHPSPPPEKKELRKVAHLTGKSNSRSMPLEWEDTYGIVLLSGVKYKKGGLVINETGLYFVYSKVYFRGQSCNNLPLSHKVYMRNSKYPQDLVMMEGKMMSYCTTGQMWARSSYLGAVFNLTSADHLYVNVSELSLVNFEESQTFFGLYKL

Substance	effect of a mutation on the interaction (tnfl6_human FASLG [1])	effect of a mutation on the interaction (tnfl6_human FASLG [2])	effect of a mutation on the interaction (tnfl6_human FASLG [3])
SH2/SH3 adapter protein NCK1 (Homo sapiens) (from UniProt P16333-1) W143K	disrupting interaction strength	–	–
SH2/SH3 adapter protein NCK1 (Homo sapiens) (from UniProt P16333-1) W38K;W143K;W229K	–	disrupting interaction strength	disrupting interaction strength
SH2/SH3 adapter protein NCK1 (Homo sapiens) (from UniProt P16333-1) W229K	disrupting interaction strength	–	–
